From paper PMC5703909, “Bactofilin-mediated organization of the ParABS chromosome segregation system in Myxococcus xanthus” (Nature Communications, 2017) come the findings set out here.

To fix the notation:
T1: His6-ParA (M. xanthus, UniProt Q1CVJ3 1-283)
T1 construct: DNA partitioning ATPase ParA of Myxococcus xanthus; Only soluble with ATP, which restricted the analyses to the dimeric form; also called ParA·ATP; purified ParA; source: E. coli Rosetta(DE3)pLysS with pAH17, purified (HisTrap HP) in the presence of magnesium-ATP
T1 sequence (looked up): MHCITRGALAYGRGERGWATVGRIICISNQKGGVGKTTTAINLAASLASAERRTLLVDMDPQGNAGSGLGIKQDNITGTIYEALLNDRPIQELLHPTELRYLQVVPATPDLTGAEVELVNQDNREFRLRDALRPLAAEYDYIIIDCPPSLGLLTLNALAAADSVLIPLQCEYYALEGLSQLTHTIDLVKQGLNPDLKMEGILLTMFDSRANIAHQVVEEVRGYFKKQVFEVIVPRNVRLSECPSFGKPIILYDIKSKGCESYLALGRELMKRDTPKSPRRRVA

B1: His6-PadC_(Δ1-281) (domain or fragment, M. xanthus, UniProt Q1D3H3 282-489, looked up)
chain: PEPEQRLSGRVTTVLLPLEKLQDESAFKLRPEGDVSGLATDIARLGQLFPVDVRPAGEDRYQLVCGFRRVAALRFLKRDAVQARIHLRLSDEDALVMSLAEAIHATPVGPEVLEAKRDELEAQGRLSAAVRDMLEKALATEDTLAPEGVEEEIDADELAQEVAQRLGAINQDLSLLADVFAALDESRKAELLMQLRYSSELVTYLEGL
modifications: biotinylated with EZ-Link NHS-PEG4-Biotin where it was loaded on the sensor
notes: PadC (MXAN_4634) of Myxococcus xanthus lacking residues 1-281; holds the ParB-like nuclease (ParBC) domain; no cleavage of the tag is described; also called PadCΔN; N-terminally truncated variant of PadC; source: E. coli Rosetta(DE3)pLysS with pMO002, purified (HisTrap HP, MonoQ)
B2: His6-BacP_(Δ1-115) (domain or fragment, M. xanthus, UniProt Q1D3H2 116-240, looked up)
chain: DVEPGRLPAERPAVVRPTAVTRPTATPARPTIPAARPMPPPPPSRPTPPPPPARPSAPPAVTRPSAPITRPGLGGLGSKPLPPPPPTRVERAEPQAGQAGSAEPPTPVLVGAGAKKKVVVKKKTR
modifications: biotinylated with EZ-Link NHS-PEG4-Biotin for loading on the sensor
notes: bactofilin BacP of Myxococcus xanthus lacking residues 1-115 (the C-terminal extension); no cleavage of the tag is described; also called BacPC; C-terminal fragment of BacP; source: E. coli Rosetta(DE3)pLysS with pIB154, purified (HisTrap HP)

The target of one experiment is T1, His6-ParA. The experiment is described as follows: BLI; BLItz, streptavidin (SAX) sensors loaded with biotinylated PadCΔN, ParA as analyte; BLItz binding buffer with 150 mM potassium glutamate, 5% glycerol and 10 mM ATP. As to conditions: both partners purified. Background: Biolayer interferometry detects binding as a change in optical thickness at a sensor tip.
The experiment “His6-PadC_(Δ1-281)” deals with B1. The experiment is described as follows: BLI; BLItz, streptavidin (SAX) sensors loaded with biotinylated BacPC, PadCΔN as analyte; 25 mM HEPES/KOH pH 7.6, 100 mM KCl, 10 mM MgSO4, 1 mM DTT, 10 µM BSA, 0.01% Tween. As to conditions: both partners purified.

One may read the Kd as a measure of binding affinity in units of concentration. A higher Kd goes with lower affinity.

B1 displayed a dissociation constant Kd in the experiment with His6-ParA of 900 nM.
B2 had a Kd in the experiment with His6-PadC_(Δ1-281) of 340 nM.
